Measured values reported in patent US20150203577A1 (Chugai, published 2015).
Values joined by “and” are separate entries in the source; they are usually repeats but may differ in a detail not shown here. Identical values can stand only once.

Key:
mouse FcγRII [1] = target: T1, mouse FcγRII (mouse, UniProt P08101 30-210); assay: SPR Biacore 4000, KD ratio
T1 construct: also called mFcγRII; mFcgRII
T1 sequence: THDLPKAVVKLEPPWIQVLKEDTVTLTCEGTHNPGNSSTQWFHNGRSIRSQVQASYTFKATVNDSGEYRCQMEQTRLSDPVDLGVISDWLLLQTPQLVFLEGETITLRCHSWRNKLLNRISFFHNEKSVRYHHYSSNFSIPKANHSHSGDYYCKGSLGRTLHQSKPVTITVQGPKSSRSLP
Experimental: (§1) Each altered antibody was analyzed for its interaction with each Fcγ receptor prepared above using Biacore T100 (GE Healthcare Japan Corp.), Biacore T200 (GE Healthcare Japan Corp.), Biacore A100, or Biacore 4000. The running buffer used was HBS-EP+ (GE Healthcare Japan Corp.). The assay temperature was set to 25° C. The sensor chips used were chips prepared by immobilizing Protein L (ACTIGEN or BioVision) onto Series S Sensor Chip CM5 (GE Healthcare Japan Corp.) or Series S Sensor Chip CM4 (GE Healthcare Japan Corp.) by the amine coupling method.
(§2) In order to calculate the KD value of each altered antibody for FcγR, kinetic analysis was conducted according to the following method: first, the antibody of interest was captured onto any of these chips and allowed to interact with mFcγR diluted with a running buffer. For the obtained sensorgram, the assay results were globally fit into the 1:1 Langmuir binding model using Biacore Evaluation Software to calculate an association rate constant ka (L/mol/s) and a dissociation rate constant kd (1/s). From these values, the dissociation constant KD (mol/L) was calculated.

mouse FcγRIII [2] = target: T2, mouse FcγRIII (mouse, UniProt P08508 31-215); assay: SPR Biacore 4000, KD ratio
T2 construct: also called mFcγRIII; mFcgRIII
T2 chain: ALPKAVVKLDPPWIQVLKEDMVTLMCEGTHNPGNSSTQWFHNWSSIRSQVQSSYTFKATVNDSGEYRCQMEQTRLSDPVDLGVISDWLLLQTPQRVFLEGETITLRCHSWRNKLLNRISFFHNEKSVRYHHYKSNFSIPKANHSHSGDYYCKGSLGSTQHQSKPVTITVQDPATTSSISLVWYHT
Experimental: as §1, §2

mouse FcγRII [3] = target: T1, mouse FcγRII; assay: SPR Biacore T200, KD ratio
mouse FcγRIII [4] = target: T2, mouse FcγRIII; assay: SPR Biacore T200, KD ratio
mouse FcγRII [5] = target: T3, mouse FcγRII (mouse, UniProt P08101 30-210); assay: SPR (Biacore), KD of H237-mIgG1/MRAL-k0 (same run) / KD of variant
T3 construct: Extracellular domain with C-terminal His tag, made in FreeStyle 293 cells; also called mFcγRII; mFcgRII
T3 sequence: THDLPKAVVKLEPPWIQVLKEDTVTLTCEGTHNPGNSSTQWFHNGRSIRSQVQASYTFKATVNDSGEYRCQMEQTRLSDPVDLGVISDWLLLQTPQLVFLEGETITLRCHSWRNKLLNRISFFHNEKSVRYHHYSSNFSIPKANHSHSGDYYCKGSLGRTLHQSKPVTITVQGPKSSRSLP
Experimental: as §1, §2

mouse FcγRIII [6] = target: T4, mouse FcγRIII (mouse, UniProt P08508 31-215); assay: as above
T4 construct: Extracellular domain with C-terminal His tag, made in FreeStyle 293 cells; also called mFcγRIII; mFcgRIII
T4 chain: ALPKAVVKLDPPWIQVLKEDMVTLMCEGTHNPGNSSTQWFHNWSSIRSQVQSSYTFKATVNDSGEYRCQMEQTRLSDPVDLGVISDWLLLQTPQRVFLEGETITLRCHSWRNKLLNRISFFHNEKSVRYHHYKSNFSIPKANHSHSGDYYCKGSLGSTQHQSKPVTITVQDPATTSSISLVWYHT
Experimental: as §1, §2

mouse FcγRII [7] = target: T3, mouse FcγRII; assay: SPR (Biacore), antibody captured on Protein L
Experimental: as §1, §2

mouse FcγRIII [8] = target: T4, mouse FcγRIII; assay: SPR (Biacore), antibody captured on Protein L
Experimental: as §1, §2

| Binder | relative mFcγRII-binding activity (mIgG1 = 1) (mouse FcγRII [1]) [fold] | relative mFcγRIII-binding activity (mIgG1 = 1) (mouse FcγRIII [2]) [fold] | relative mFcγRII-binding activity (mIgG1 = 1) (mouse FcγRII [5]) [fold] | relative mFcγRIII-binding activity (mIgG1 = 1) (mouse FcγRIII [6]) [fold] | Kd (mouse FcγRII [7]) | Kd (mouse FcγRIII [8]) | also measured |
| --- | --- | --- | --- | --- | --- | --- | --- |
| H237-MB110/MRAL-k0 (antibody, mouse IgG1, kappa, copies: 2 + 2) heavy: QVQLQESGPGLVKPSETLSLTCAVSGHSISHDHAWSWVRQPPGEGLEWIGFISYSGITNYNPSLQGRVTISRDNSKNTLYLQMNSLRAEDTAVYYCARSLARTTAMDYWGEGTLVTVSSAKTTPPSVYPLAPGSAAQTNSMVTLGCLVKGYFPEPVTVTWNSGSLSSGVHTFPAVLQSDLYTLSSSVTVPSSTWPSETVTCNVAHPASSTKVDKKIVPRDCGCKPCICTVPEVSDVFIFPPKPKDVLTITLTPKVTCVVVDISKDDPEVQFSWFVDDVEVHTAQTQPREEQFNSTFRSVSELPIMHQDWLNGKEFKCRVNSAAFPAPIEKTISKTKGRPKAPQVYTIPPPKEQMAKDKVSLTCMITDFFPEDITVEWQWNGQPAENYKNTQPIMDTDGSYFVYSKLNVQKSNWEAGNTFTCSVLHEGLHNHHTEKSLSHSPGK light: not shown | 15.1 | 4.45 |  |  |  |  | Relative mFcγRII-binding activity (MB110 = 1) (mouse FcγRII [3]): 1 fold; relative mFcγRII-binding activity (mIgG1 = 1) (mouse FcγRII [3]): 12.3 fold; Relative mFcγRIII-binding activity (MB110 = 1) (mouse FcγRIII [4]): 1 fold; relative mFcγRIII-binding activity (mIgG1 = 1) (mouse FcγRIII [4]): 4 fold |
| H237-MB687/MRAL-k0 (antibody, mouse IgG1, kappa, copies: 2 + 2) heavy: QVQLQESGPGLVKPSETLSLTCAVSGHSISHDHAWSWVRQPPGEGLEWIGFISYSGITNYNPSLQGRVTISRDNSKNTLYLQMNSLRAEDTAVYYCARSLARTTAMDYWGEGTLVTVSSAKTTPPSVYPLAPGSAAQTNSMVTLGCLVKGYFPEPVTVTWNSGSLSSGVHTFPAVLQSDLYTLSSSVTVPSSTWPSETVTCNVAHPASSTKVDKKIVPRDCGCKPCICEPPEVELVFIFPPKPKDVLTITLTPKVTCVVVDISKDDPEVQFSWFVDDVEVHTAQTQPREEQFNSTFRSVSELPIMHQDWLNGKEFKCRVNSAAFPAPIEKTISKTKGRPKAPQVYTIPPPKEQMAKDKVSLTCMITDFFPEDITVEWQWNGQPAENYKNTQPIMDTDGSYFVYSKLNVQKSNWEAGNTFTCSVLHEGLHNHHTEKSLSHSPGK light: not shown |  |  | 0.94 | 0.1 | 345 nM | 5320 nM |  |
| MB199 (antibody, mouse IgG1, kappa, copies: 2 + 2) heavy: QVQLQESGPGLVKPSETLSLTCAVSGHSISHDHAWSWVRQPPGEGLEWIGFISYSGITNYNPSLQGRVTISRDNSKNTLYLQMNSLRAEDTAVYYCARSLARTTAMDYWGEGTLVTVSSAKTTPPSVYPLAPGSAAQTNSMVTLGCLVKGYFPEPVTVTWNSGSLSSGVHTFPAVLQSDLYTLSSSVTVPSSTWPSETVTCNVAHPASSTKVDKKIVPRDCGCKPCICTVPEVSSVFIFPPKPKDVLTITLTPKVTCVVVDIAKDDPEVQFSWFVDDVEVHTAQTQPREEQFNSTFRSVSELPIMHQDWLNGKEFKCRVNSAAFPAPIEKTISKTKGRPKAPQVYTIPPPKEQMAKDKVSLTCMITDFFPEDITVEWQWNGQPAENYKNTQPIMDTDGSYFVYSKLNVQKSNWEAGNTFTCSVLHEGLHNHHTEKSLSHSPGK light: not shown | 1.48 | 1.19 |  |  |  |  |  |
| H237-MB600/MRAL-k0 (antibody, mouse IgG1, kappa, copies: 2 + 2) heavy: QVQLQESGPGLVKPSETLSLTCAVSGHSISHDHAWSWVRQPPGEGLEWIGFISYSGITNYNPSLQGRVTISRDNSKNTLYLQMNSLRAEDTAVYYCARSLARTTAMDYWGEGTLVTVSSAKTTPPSVYPLAPGSAAQTNSMVTLGCLVKGYFPEPVTVTWNSGSLSSGVHTFPAVLQSDLYTLSSSVTVPSSTWPSETVTCNVAHPASSTKVDKKIVPRDCGCKPCICEVPEESWVFIFPPKPKDVLTITLTPKVTCVVVDISKDDPEVQFSWFVDDVEVHTAQTQPREEQFNSTFRSVSELPIMHQDWLNGKEFKCRVNSAAFPAPIEKTISKTKGRPKAPQVYTIPPPKEQMAKDKVSLTCMITDFFPEDITVEWQWNGQPAENYKNTQPIMDTDGSYFVYSKLNVQKSNWEAGNTFTCSVLHEGLHNHHTEKSLSHSPGK light: not shown |  |  | 1.24 | 0.25 | 171 nM | 1270 nM |  |
| H237-MB601/MRAL-k0 (antibody, mouse IgG1, kappa, copies: 2 + 2) heavy: QVQLQESGPGLVKPSETLSLTCAVSGHSISHDHAWSWVRQPPGEGLEWIGFISYSGITNYNPSLQGRVTISRDNSKNTLYLQMNSLRAEDTAVYYCARSLARTTAMDYWGEGTLVTVSSAKTTPPSVYPLAPGSAAQTNSMVTLGCLVKGYFPEPVTVTWNSGSLSSGVHTFPAVLQSDLYTLSSSVTVPSSTWPSETVTCNVAHPASSTKVDKKIVPRDCGCKPCICEVPEESSVDIFPPKPKDVLTITLTPKVTCVVVDISKDDPEVQFSWFVDDVEVHTAQTQPREEQFNSTFRSVSELPIMHQDWLNGKEFKCRVNSAAFPAPIEKTISKTKGRPKAPQVYTIPPPKEQMAKDKVSLTCMITDFFPEDITVEWQWNGQPAENYKNTQPIMDTDGSYFVYSKLNVQKSNWEAGNTFTCSVLHEGLHNHHTEKSLSHSPGK light: not shown |  |  | 0.55 | 0.1 | 389 nM | 3230 nM |  |
| MB251 (antibody, mouse IgG1, kappa, copies: 2 + 2) heavy: QVQLQESGPGLVKPSETLSLTCAVSGHSISHDHAWSWVRQPPGEGLEWIGFISYSGITNYNPSLQGRVTISRDNSKNTLYLQMNSLRAEDTAVYYCARSLARTTAMDYWGEGTLVTVSSAKTTPPSVYPLAPGSAAQTNSMVTLGCLVKGYFPEPVTVTWNSGSLSSGVHTFPAVLQSDLYTLSSSVTVPSSTWPSETVTCNVAHPASSTKVDKKIVPRDCGCKPCICTVPEVSSVFIFPPKPKDVLTITLTPKVTCVVVDISKDDPEVQFSWFVDDVEVHTAQTQPREEQWNSTFRSVSELPIMHQDWLNGKEFKCRVNSAAFPAPIEKTISKTKGRPKAPQVYTIPPPKEQMAKDKVSLTCMITDFFPEDITVEWQWNGQPAENYKNTQPIMDTDGSYFVYSKLNVQKSNWEAGNTFTCSVLHEGLHNHHTEKSLSHSPGK light: not shown | 1.49 | 1.23 |  |  |  |  |  |
| H237-MB599/MRAL-k0 (antibody, mouse IgG1, kappa, copies: 2 + 2) heavy: QVQLQESGPGLVKPSETLSLTCAVSGHSISHDHAWSWVRQPPGEGLEWIGFISYSGITNYNPSLQGRVTISRDNSKNTLYLQMNSLRAEDTAVYYCARSLARTTAMDYWGEGTLVTVSSAKTTPPSVYPLAPGSAAQTNSMVTLGCLVKGYFPEPVTVTWNSGSLSSGVHTFPAVLQSDLYTLSSSVTVPSSTWPSETVTCNVAHPASSTKVDKKIVPRDCGCKPCICEVPEESFVFIFPPKPKDVLTITLTPKVTCVVVDISKDDPEVQFSWFVDDVEVHTAQTQPREEQFNSTFRSVSELPIMHQDWLNGKEFKCRVNSAAFPAPIEKTISKTKGRPKAPQVYTIPPPKEQMAKDKVSLTCMITDFFPEDITVEWQWNGQPAENYKNTQPIMDTDGSYFVYSKLNVQKSNWEAGNTFTCSVLHEGLHNHHTEKSLSHSPGK light: not shown |  |  | 0.7 | 0.11 | 306 nM | 3020 nM |  |
| H237-MB657/MRAL-k0 (antibody, mouse IgG1, kappa, copies: 2 + 2) heavy: QVQLQESGPGLVKPSETLSLTCAVSGHSISHDHAWSWVRQPPGEGLEWIGFISYSGITNYNPSLQGRVTISRDNSKNTLYLQMNSLRAEDTAVYYCARSLARTTAMDYWGEGTLVTVSSAKTTPPSVYPLAPGSAAQTNSMVTLGCLVKGYFPEPVTVTWNSGSLSSGVHTFPAVLQSDLYTLSSSVTVPSSTWPSETVTCNVAHPASSTKVDKKIVPRDCGCKPCICEPNEVEFVFIFPPKPKDVLTITLTPKVTCVVVDISKDDPEVQFSWFVDDVEVHTAQTQPREEQFNSTFRSVSELPIMHQDWLNGKEFKCRVNSAAFPAPIEKTISKTKGRPKAPQVYTIPPPKEQMAKDKVSLTCMITDFFPEDITVEWQWNGQPAENYKNTQPIMDTDGSYFVYSKLNVQKSNWEAGNTFTCSVLHEGLHNHHTEKSLSHSPGK light: not shown |  |  |  | 0.09 | 118 nM and 211 nM | 3480 nM and 5870 nM |  |
| MB261 (antibody, mouse IgG1, kappa, copies: 2 + 2) heavy: QVQLQESGPGLVKPSETLSLTCAVSGHSISHDHAWSWVRQPPGEGLEWIGFISYSGITNYNPSLQGRVTISRDNSKNTLYLQMNSLRAEDTAVYYCARSLARTTAMDYWGEGTLVTVSSAKTTPPSVYPLAPGSAAQTNSMVTLGCLVKGYFPEPVTVTWNSGSLSSGVHTFPAVLQSDLYTLSSSVTVPSSTWPSETVTCNVAHPASSTKVDKKIVPRDCGCKPCICTVPEVSSVFIFPPKPKDVLTITLTPKVTCVVVDISKDDPEVQFSWFVDDVEVHTAQTQPREEQFNLTFRSVSELPIMHQDWLNGKEFKCRVNSAAFPAPIEKTISKTKGRPKAPQVYTIPPPKEQMAKDKVSLTCMITDFFPEDITVEWQWNGQPAENYKNTQPIMDTDGSYFVYSKLNVQKSNWEAGNTFTCSVLHEGLHNHHTEKSLSHSPGK light: not shown | 2.11 | 1.81 |  |  |  |  |  |
